Test results as given in paper PMC4940744, “Iron(II) supramolecular helicates interfere with the HIV-1 Tat–TAR RNA interaction critical for viral replication”.

Biological target: T1, ADP-1 polypeptide (Tat RNA-binding region) (HIV-1, UniProt P04608 37-72)
T1 chain: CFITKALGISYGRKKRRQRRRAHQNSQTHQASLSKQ
Assay: EMSA; no helicate; EMSA: 50 mM Tris-HCl pH 8.0, 50 mM KCl, 100 mM DTT, 0.05% Triton X-100, 10 min on ice; 15% PAA gel, 0.5x TB, 5 C
Conditions: label: 5'-32P; hairpin with 3-nt UCU bulge

GGCCAGAUCUGAGCCUGGGAGCUCUCUGGCC (structured_RNA) [TAR RNA]
binding result: binds
